For the assay, the target named is binding between SARS-CoV-2 Wuhan RBD-Fc and hACE2-AP (UniProt P0DTC2+Q9BYF1). Further details: species or system SARS-CoV-2; human.
binding between SARS-CoV-2 Wuhan RBD-Fc and hACE2-AP, sequence (Q9BYF1 18-740, one chain of several): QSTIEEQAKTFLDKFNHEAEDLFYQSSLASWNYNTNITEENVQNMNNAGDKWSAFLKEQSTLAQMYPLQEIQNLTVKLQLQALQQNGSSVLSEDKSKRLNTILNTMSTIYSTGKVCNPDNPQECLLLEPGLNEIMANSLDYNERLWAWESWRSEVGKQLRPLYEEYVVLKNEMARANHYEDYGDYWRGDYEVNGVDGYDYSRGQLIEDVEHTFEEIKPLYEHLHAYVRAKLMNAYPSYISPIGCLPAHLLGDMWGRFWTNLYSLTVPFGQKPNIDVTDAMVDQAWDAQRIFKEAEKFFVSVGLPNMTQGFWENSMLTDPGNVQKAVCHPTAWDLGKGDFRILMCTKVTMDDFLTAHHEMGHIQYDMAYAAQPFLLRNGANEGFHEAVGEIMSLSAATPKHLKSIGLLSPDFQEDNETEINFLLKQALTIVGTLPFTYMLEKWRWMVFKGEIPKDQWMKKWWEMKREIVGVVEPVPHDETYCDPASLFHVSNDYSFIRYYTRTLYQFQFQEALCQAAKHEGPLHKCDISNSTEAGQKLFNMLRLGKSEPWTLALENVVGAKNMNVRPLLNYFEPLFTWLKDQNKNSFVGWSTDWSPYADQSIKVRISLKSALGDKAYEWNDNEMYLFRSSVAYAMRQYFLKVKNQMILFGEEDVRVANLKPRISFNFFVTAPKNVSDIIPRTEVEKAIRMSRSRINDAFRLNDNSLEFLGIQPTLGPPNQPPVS

In the case of shACE2, the “IC50, inhibition of hACE2-AP to RBD-Fc interaction” value stood at 1.42 µg/mL.

The values are drawn from article PMC12326988, “Synthetic host defense peptide inhibits SARS-CoV-2 replication in vitro” (Antimicrobial Agents and Chemotherapy, 2025).
